Data on 3 substances can be found in paper PMC3294036.

Several values for one entry are separate records, joined by “and”; a condition that tells them apart may be missing. Equal entries are not always repeated.

What all share (assay): FRET or BRET
Test [1] deals with AKAP79-CFP I338P variant (PPAIIIT), full-length (human) (UniProt P24588).
The target of test [2] is AKAP79-CFP, wildtype, full-length (human) (UniProt P24588).
Test [3] concerns the target ATTO425-AKAP79(333–408) I338P variant (PPAIIIT) (human) (UniProt P24588).
Test [4] has as its target ATTO425-AKAP79(333–408), wildtype (PIAIIIT) (human) (UniProt P24588).

Sequence of ATTO425-AKAP79(333–408), wildtype (PIAIIIT) (human) (P24588 333-408): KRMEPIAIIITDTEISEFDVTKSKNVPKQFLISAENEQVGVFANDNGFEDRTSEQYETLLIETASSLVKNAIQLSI
Sequence of AKAP79-CFP, wildtype, full-length (human) (P24588 whole entry): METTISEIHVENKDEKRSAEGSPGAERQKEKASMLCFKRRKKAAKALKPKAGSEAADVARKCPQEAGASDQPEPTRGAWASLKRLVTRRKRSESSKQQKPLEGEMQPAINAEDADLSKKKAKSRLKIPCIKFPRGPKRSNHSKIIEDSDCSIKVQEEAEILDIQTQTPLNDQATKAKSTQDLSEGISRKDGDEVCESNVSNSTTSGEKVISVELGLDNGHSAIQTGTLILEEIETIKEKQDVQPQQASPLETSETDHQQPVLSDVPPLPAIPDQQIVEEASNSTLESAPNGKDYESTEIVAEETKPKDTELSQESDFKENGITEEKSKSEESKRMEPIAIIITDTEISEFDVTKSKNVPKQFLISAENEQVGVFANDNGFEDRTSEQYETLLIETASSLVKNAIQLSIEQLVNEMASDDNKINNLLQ
Sequence of AKAP79-CFP I338P variant (PPAIIIT), full-length (human) (P24588 whole entry I338P): as the sequence (P24588 whole entry) above, with I338P counted along it
Sequence of ATTO425-AKAP79(333–408) I338P variant (PPAIIIT) (human) (P24588 333-408 I338P): as the sequence (P24588 333-408) above, with I6P counted along it

With “CNAα-YFP (from UniProt Q08209 1-521) (enzyme)”, in test [1], the corrected YFP/CFP fluorescence intensity ratio (treated as 1:1 complex) is 8.1 and the corrected YFP/CFP fluorescence intensity ratio (treated as 2:1 complex) was determined as 7.1.
One may read the stoichiometry N as the number of molecules, sites or subunits per partner or assembly. In the case of “CNAα-YFP (from UniProt Q08209 1-521) (enzyme; other documents disagree on this pair)”, in test [2], the corrected YFP/CFP fluorescence intensity ratio (treated as 2:1 complex) is 6.1 and the stoichiometry N is 1.
A word on the Kd: it is a measure of binding affinity in units of concentration. Low readings indicate higher affinity, high ones lower affinity. As usually defined, the koff is the first-order rate constant of dissociation. Higher therefore signals a short-lived complex. Turning to “rhodamine-CN (calcineurin labelled with tetramethylrhodamine acceptor) (from UniProt Q08209;P63098) (complex)”, the half-time of dissociation in test [3] turned out to be 163 ms. Further, in test [4], the Kd was 400 nM and 300 nM; the koff was 9.96 s⁻¹.
